Experimental data: US20100028924A1, “Method Of Diagnosing Pon1-Hdl Associated Lipid Disorders” (Rappaport Family Institute Research in the Medical Sciences, priority 2006, published 2010)

Experiments:
[1] = biological target: rHDL-apoA-I (reconstituted discoidal HDL particles carrying apolipoprotein A-I); experiment: SPR (BIAcore 3000), biotinylated rHDL-apoA-I on streptavidin chip, PON1 injected, 25° C.
[2] = biological target: rHDL-apoA-I (reconstituted discoidal HDL particles carrying apolipoprotein A-I); experiment: SPR, rHDL-apoA-I immobilised; reference Δ20-rePON1-192Q

Sequence of Δ20-rePON1-192Q (P27170 other isoform, or with tags, fused parts or gaps mutant): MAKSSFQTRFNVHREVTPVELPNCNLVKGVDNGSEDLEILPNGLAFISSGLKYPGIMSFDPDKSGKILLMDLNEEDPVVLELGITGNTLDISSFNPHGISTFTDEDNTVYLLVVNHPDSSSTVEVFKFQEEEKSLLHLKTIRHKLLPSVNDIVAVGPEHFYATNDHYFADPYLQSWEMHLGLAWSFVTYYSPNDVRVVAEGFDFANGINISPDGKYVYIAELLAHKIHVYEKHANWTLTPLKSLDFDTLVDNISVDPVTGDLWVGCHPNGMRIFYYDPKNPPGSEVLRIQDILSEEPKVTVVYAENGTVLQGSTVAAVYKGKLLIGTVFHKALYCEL
Sequence of Δ20-rePON1-192R (P27170 other isoform, or with tags, fused parts or gaps mutant): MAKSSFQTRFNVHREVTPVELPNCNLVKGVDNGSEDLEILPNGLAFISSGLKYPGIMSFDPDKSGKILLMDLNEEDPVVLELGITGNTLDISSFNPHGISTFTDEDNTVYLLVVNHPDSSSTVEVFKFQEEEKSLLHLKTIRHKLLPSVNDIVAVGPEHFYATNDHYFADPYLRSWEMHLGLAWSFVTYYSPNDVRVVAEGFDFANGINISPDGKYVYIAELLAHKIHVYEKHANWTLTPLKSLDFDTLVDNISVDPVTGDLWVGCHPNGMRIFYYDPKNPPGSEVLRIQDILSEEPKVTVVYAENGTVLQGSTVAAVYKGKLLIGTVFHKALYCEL
Sequence of wt Δ20-rePON1-192K (P27170 other isoform, or with tags, fused parts or gaps mutant): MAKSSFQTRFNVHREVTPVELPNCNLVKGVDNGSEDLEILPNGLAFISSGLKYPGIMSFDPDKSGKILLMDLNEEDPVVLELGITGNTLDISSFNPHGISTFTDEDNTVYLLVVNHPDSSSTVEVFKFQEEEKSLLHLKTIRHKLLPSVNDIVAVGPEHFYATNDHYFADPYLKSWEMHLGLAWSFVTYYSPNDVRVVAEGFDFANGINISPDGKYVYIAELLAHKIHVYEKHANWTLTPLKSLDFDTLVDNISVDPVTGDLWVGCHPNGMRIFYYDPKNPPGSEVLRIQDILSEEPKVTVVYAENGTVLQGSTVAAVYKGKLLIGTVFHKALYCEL

Substance	Kd [1] [nM]	koff [1] [s⁻¹]	kon [1] [M⁻¹ s⁻¹]	fold higher HDL binding affinity than the Q isozyme [2] [fold]	fold higher HDL affinity than the Q isozyme [2] [fold]
wt Δ20-rePON1-192K (from UniProt P27170 21-355) (enzyme)	100	0.02	200000	3	–
Δ20-rePON1-192Q (from UniProt P27170 21-355) (enzyme)	300	0.042	140000	–	–
Δ20-rePON1-192R (from UniProt P27170 21-355) (enzyme)	110	0.029	260000	–	3
